T1: mTLR9-cECD (C-terminal proteolytic fragment of TLR9 ectodomain) (Mus musculus, UniProt Q9EQU3 474-824)
T1 sequence: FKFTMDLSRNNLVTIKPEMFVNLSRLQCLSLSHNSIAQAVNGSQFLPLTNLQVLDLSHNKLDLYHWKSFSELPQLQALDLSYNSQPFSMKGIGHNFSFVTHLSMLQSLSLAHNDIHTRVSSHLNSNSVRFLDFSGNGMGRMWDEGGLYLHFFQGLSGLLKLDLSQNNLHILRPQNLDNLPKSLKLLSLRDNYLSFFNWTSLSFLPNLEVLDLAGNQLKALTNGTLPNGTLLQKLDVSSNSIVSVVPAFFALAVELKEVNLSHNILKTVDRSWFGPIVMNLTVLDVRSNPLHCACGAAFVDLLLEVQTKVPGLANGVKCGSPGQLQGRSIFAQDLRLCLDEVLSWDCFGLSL

B1: R:D60 (Cy3) (DNA:RNA)
RNA: GUGUGUGUGUGUGUGUGUGUGUGUGUGUGUGUGUGUGUGUGUGUGUGUGUGUGUGUGUGU
?: ACACACACACACACACACACACACACACACACACACACACACACACACACACACACACAC
B2: Cy5-ssDNA60 (ssDNA)
DNA: B1 ?
B3: Cy3-ssRNA60 (ssRNA)
RNA: B1 RNA

Biological target: T1, mTLR9-cECD (C-terminal proteolytic …)
Experiment: fluorescence anisotropy; 20 mM MES pH 5.6, 100 mM NaCl, 2 mM beta-mercaptoethanol, 25 C, 0.2 uM labelled R:D60, protein 10 nM-3.0 uM, 10 min equilibration

Binder	Kd
B1	27.2 nM
B2	142 nM
B3	1080 nM

From paper PMC3989650
